± gives the uncertainty stated by the source.
B1: Storkhead-box protein 2, residues 64 to 141; numbered along this chain, Q9P2F5 (parent)
chain: SPISQSQFIPLGEILCLAISAMNSARKPVTQEALMEHLTTCFPGVPTPSQEILRHTLNTLVRERKIYPTPDGYFIVTP

Variants of: B1
Experiment: abundance fitness (aPCA) (normalised: wild type 0, dead -1); higher = more abundant; growth selection in yeast, the domain comes from the species named
Details: Homo sapiens

Point of comparison: SPISQSQFIPLGEILCLAISAMNSARKPVTQEALMEHLTTCFPGVPTPSQEILRHTLNTLVGERKIYPTPDGYFIVTP, abundance fitness -0.008 ± 0.038. Against it:
- SPISQSQFIPLGEILCLAISAMNSARKPVTQEALMEHLTTCFPGVPTPSQEILRHTLNWLVRERKIYPTPDGYFIVTP — within error, 0.062 ± 0.048
- SPISQSQFIPLGEILCLAISAMNSARKPVTQEALMEHLTTCFPGVPTPSQEILRHTLNCLVRERKIYPTPDGYFIVTP — higher, 0.122 ± 0.076
- SPISQSQFIPLGEILCLAISAMNSARKPVTQEALMEHLTTCFPGVPTPSQEILRHTLNGLVRERKIYPTPDGYFIVTP — within error, 0.015 ± 0.033
- SPISQSQFIPLGEILCLAISAMNSARKPVTQEALMEHLTTCFPGVPTPSQEILRHTLNDLVRERKIYPTPDGYFIVTP — within error, -0.016 ± 0.063
- SPISQSQFIPLGEILCLAISAMNSARKPVTQEALMEHLTTCFPGVPTPSQEILRHTLNHLVRERKIYPTPDGYFIVTP — within error, 0.049 ± 0.082
- SPISQSQFIPLGEILCLAISAMNSARKPVTQEALMEHLTTCFPGVPTPSQEILRHTLNRLVRERKIYPTPDGYFIVTP — within error, -0.001 ± 0.036
- SPISQSQFIPLGEILCLAISAMNSARKPVTQEALMEHLTTCFPGVPTPSQEILRHTLNNLVRERKIYPTPDGYFIVTP — within error, -0.087 ± 0.056
- SPISQSQFIPLGEILCLAISAMNSARKPVTQEALMEHLTTCFPGVPTPSQEILRHTLNELVRERKIYPTPDGYFIVTP — within error, 0.049 ± 0.061
- SPISQSQFIPLGEILCLAISAMNSARKPVTQEALMEHLTTCFPGVPTPSQEILRHTLNSLVRERKIYPTPDGYFIVTP — higher, 0.104 ± 0.043
- SPISQSQFIPLGEILCLAISAMNSARKPVTQEALMEHLTTCFPGVPTPSQEILRHTLNQLVRERKIYPTPDGYFIVTP — within error, -0.031 ± 0.052
- SPISQSQFIPLGEILCLAISAMNSARKPVTQEALMEHLTTCFPGVPTPSQEILRHTLNPLVRERKIYPTPDGYFIVTP — lower, -0.921 ± 0.1
- SPISQSQFIPLGEILCLAISAMNSARKPVTQEALMEHLTTCFPGVPTPSQEILRHTLNVLVRERKIYPTPDGYFIVTP — within error, 0.035 ± 0.035
- SPISQSQFIPLGEILCLAISAMNSARKPVTQEALMEHLTTCFPGVPTPSQEILRHTLNKLVRERKIYPTPDGYFIVTP — within error, -0.047 ± 0.077
- SPISQSQFIPLGEILCLAISAMNSARKPVTQEALMEHLTTCFPGVPTPSQEILRHTLNILVRERKIYPTPDGYFIVTP — within error, 0.029 ± 0.074
- SPISQSQFIPLGEILCLAISAMNSARKPVTQEALMEHLTTCFPGVPTPSQEILRHTLNALVRERKIYPTPDGYFIVTP — within error, 0.017 ± 0.045
- SPISQSQFIPLGEILCLAISAMNSARKPVTQEALMEHLTTCFPGVPTPSQEILRHTLNLLVRERKIYPTPDGYFIVTP — higher, 0.067 ± 0.034
- SPISQSQFIPLGEILCLAISAMNSARKPVTQEALMEHLTTCFPGVPTPSQEILRHTLNMLVRERKIYPTPDGYFIVTP — within error, -0.023 ± 0.061
- SPISQSQFIPLGEILCLAISAMNSARKPVTQEALMEHLTTCFPGVPTPSQEILRHTLNFLVRERKIYPTPDGYFIVTP — within error, 0.018 ± 0.064
- SPISQSQFIPLGEILCLAISAMNSARKPVTQEALMEHLTTCFPGVPTPSQEILRHTLYTLVRERKIYPTPDGYFIVTP — lower, -0.203 ± 0.11
- SPISQSQFIPLGEILCLAISAMNSARKPVTQEALMEHLTTCFPGVPTPSQEILRHTLWTLVRERKIYPTPDGYFIVTP — within error, -0.093 ± 0.054
- SPISQSQFIPLGEILCLAISAMNSARKPVTQEALMEHLTTCFPGVPTPSQEILRHTLNTLVTERKIYPTPDGYFIVTP — within error, 0.053 ± 0.051
- SPISQSQFIPLGEILCLAISAMNSARKPVTQEALMEHLTTCFPGVPTPSQEILRHTLNTLVYERKIYPTPDGYFIVTP — within error, 0.076 ± 0.21
- SPISQSQFIPLGEILCLAISAMNSARKPVTQEALMEHLTTCFPGVPTPSQEILRHTLNTLVEERKIYPTPDGYFIVTP — within error, 0.017 ± 0.075
- SPISQSQFIPLGEILCLAISAMNSARKPVTQEALMEHLTTCFPGVPTPSQEILRHTLNTLVWERKIYPTPDGYFIVTP — within error, -0.081 ± 0.049
- SPISQSQFIPLGEILCLAISAMNSARKPVTQEALMEHLTTCFPGVPTPSQEILRHTLNTLVHERKIYPTPDGYFIVTP — within error, -0.051 ± 0.14
- SPISQSQFIPLGEILCLAISAMNSARKPVTQEALMEHLTTCFPGVPTPSQEILRHTLNTLVKERKIYPTPDGYFIVTP — within error, -0.109 ± 0.18
- SPISQSQFIPLGEILCLAISAMNSARKPVTQEALMEHLTTCFPGVPTPSQEILRHTLNTLVDERKIYPTPDGYFIVTP — within error, -0.05 ± 0.11
- SPISQSQFIPLGEILCLAISAMNSARKPVTQEALMEHLTTCFPGVPTPSQEILRHTLNTLVIERKIYPTPDGYFIVTP — within error, 0.006 ± 0.07
- SPISQSQFIPLGEILCLAISAMNSARKPVTQEALMEHLTTCFPGVPTPSQEILRHTLNTLVMERKIYPTPDGYFIVTP — within error, 0.045 ± 0.095
- SPISQSQFIPLGEILCLAISAMNSARKPVTQEALMEHLTTCFPGVPTPSQEILRHTLNTLVPERKIYPTPDGYFIVTP — lower, -0.944 ± 0.091
- SPISQSQFIPLGEILCLAISAMNSARKPVTQEALMEHLTTCFPGVPTPSQEILRHTLNTLVLERKIYPTPDGYFIVTP — within error, -0.037 ± 0.034
- SPISQSQFIPLGEILCLAISAMNSARKPVTQEALMEHLTTCFPGVPTPSQEILRHTLNTLVAERKIYPTPDGYFIVTP — within error, 0.049 ± 0.049
- SPISQSQFIPLGEILCLAISAMNSARKPVTQEALMEHLTTCFPGVPTPSQEILRHTLNTLVCERKIYPTPDGYFIVTP — within error, -0.047 ± 0.066
- SPISQSQFIPLGEILCLAISAMNSARKPVTQEALMEHLTTCFPGVPTPSQEILRHTLNTLVRCRKIYPTPDGYFIVTP — within error, -0.043 ± 0.055
